Bounds are passed on as bounds.

One experiment concerns the target HLA-B*08:03. The experiment can be described thus: IEDB peptide-MHC binding, purified MHC/direct/fluorescence; filed as Kd, often an IC50 or EC50 that approximates it; ≥ and ≤ were set here for values at or beyond the usual limits of such assays. Conditions: source organism: Bacillus cereus 03BB108.
The target of another experiment is HLA-A*11:01. Described as above. Conditions: source organism: Bacillus anthracis.
For the next experiment, the target named is HLA-B*15:17. Described as above. Conditions: source organism: Bacillus anthracis.
The next experiment deals with HLA-A*69:01. Described as above. Conditions: source organism: Bacillus anthracis.
The target of the next experiment is HLA-B*15:01. The experiment is described as above. Conditions: source organism: Bacillus anthracis.
Another experiment concerns the target HLA-A*01:01. The description is as above. Conditions: source organism: Bacillus anthracis.
The target in another experiment is HLA-A*02:01. The description is as above. Conditions: source organism: Bacillus anthracis.
The next experiment deals with HLA-B*46:01. The experiment is described as above. Conditions: source organism: Bacillus anthracis.
For a further experiment, the target named is HLA-B*15:02. The description is as above. Conditions: source organism: Bacillus cereus 03BB108.
A further experiment addresses HLA-A*26:01. The experiment is described as above. Conditions: source organism: Bacillus cereus 03BB108.
Another experiment concerns the target HLA-A*68:02. Described as above. Conditions: source organism: Bacillus anthracis.
Another experiment addresses HLA-B*58:01. Described as above. Conditions: source organism: Bacillus anthracis.
Another experiment deals with HLA-B*48:01. Described as above. Conditions: source organism: Bacillus anthracis.
Another experiment has as its target HLA-A*31:01. Described as above. Conditions: source organism: Bacillus anthracis.
The target of the next experiment is HLA-B*57:01. The experiment is described as above. Conditions: source organism: Bacillus anthracis.
The target of another experiment is HLA-B*07:02. The description is as above. Conditions: source organism: Bacillus anthracis.
Another experiment concerns the target HLA-B*35:01. The description is as above. Conditions: source organism: Bacillus cereus 03BB108.
A further experiment addresses HLA-B*27:05. The experiment is described as above. Conditions: source organism: Bacillus anthracis.
In a further experiment the target is HLA-A*03:01. Described as above. Conditions: source organism: Bacillus anthracis.
For another experiment, the target named is HLA-A*26:02. In words: IEDB peptide-MHC binding, purified MHC/competitive/fluorescence; filed as Kd, often an IC50 or EC50 that approximates it; ≥ and ≤ were set here for values at or beyond the usual limits of such assays. Conditions: source organism: Bacillus anthracis str. A0488.
Another experiment addresses HLA-B*15:09. The experiment is described as above. Conditions: source organism: Bacillus anthracis str. A0488.
The target in another experiment is HLA-B*39:01. The experiment is described as above. Conditions: source organism: Bacillus anthracis str. A0488.

Turning to SQMPPQKIM, the dissociation constant (Kd) is no less than 20 µM in the experiment with HLA-B*08:03; no less than 20 µM with HLA-A*11:01; no less than 20 µM in the experiment with HLA-B*15:17; no less than 20 µM with HLA-A*69:01; 0.125 µM in the experiment with HLA-B*15:01; no less than 20 µM with HLA-A*01:01. The Kd is no less than 20 µM with HLA-A*02:01; no less than 20 µM in the experiment with HLA-B*46:01; 0.022 µM in the experiment with HLA-B*15:02; no less than 20 µM in the experiment with HLA-A*26:01; no less than 20 µM with HLA-A*68:02; no less than 20 µM with HLA-B*58:01. Besides, the Kd in the experiment with HLA-B*48:01 was 3.67 µM; with HLA-A*31:01, no less than 20 µM; with HLA-B*57:01 it was no less than 20 µM; with HLA-B*07:02 it was no less than 20 µM; with HLA-B*35:01, 0.661 µM; in the experiment with HLA-B*27:05, no less than 20 µM. In addition, the Kd in the experiment with HLA-A*03:01 was no less than 20 µM; with HLA-A*26:02, no less than 20 µM; with HLA-B*15:09, 0.283 µM; with HLA-B*39:01, 3 µM.

By Kd is commonly meant the equilibrium constant for the complex coming apart. Low values mean a tighter complex, high ones a looser complex.
